Read-outs that look alike come from different tables or passages of the source.
What was measured:
Assay in all cases: ITC
[1] = biological target: T1, HIV-1 nucleocapsid protein (NC) (HIV-1 NL4-3, UniProt P12493 378-432)
[2] = biological target: T1, HIV-1 nucleocapsid protein (NC); remark: listed apart in the source
[3] = biological target: T1, HIV-1 nucleocapsid protein (NC); remark: listed apart in the source
[4] = biological target: T1, HIV-1 nucleocapsid protein (NC); remark: listed apart in the source
[5] = biological target: T1, HIV-1 nucleocapsid protein (NC); remark: listed apart in the source
[6] = biological target: T1, HIV-1 nucleocapsid protein (NC); remark: listed apart in the source
[7] = biological target: T1, HIV-1 nucleocapsid protein (NC); remark: listed apart in the source
[8] = biological target: T1, HIV-1 nucleocapsid protein (NC); remark: listed apart in the source

B1: U5 (U5GGG, native) (ssRNA)
RNA: UGUGCCCGUCU
[1]
  Kd: 122 ± 10 nM

B2: U5UUG (G106U;G108U) (ssRNA)
RNA: UUUUCCCGUCU
[2]
  Kd: 547 ± 55 nM

B3: U5UUU (G106U;G108U;G112U) (ssRNA)
RNA: UUUUCCCUUCU
[3]
  binding result: no binding

B4: U5GGU (G112U) (ssRNA)
RNA: UGUGCCCUUCU
[4]
  Kd: 81 ± 8 nM

B5: U5GUG (G108U) (ssRNA)
RNA: UGUUCCCGUCU
[5]
  Kd: 239 ± 20 nM

B6: U5UGG (G106U) (ssRNA)
RNA: UUUGCCCGUCU
[6]
  Kd: 267 ± 20 nM

B7: U5GUU (G108U;G112U) (ssRNA)
RNA: UGUUCCCUUCU
[7]
  Kd: 880 ± 91 nM

B8: U5UGU (G106U;G112U) (ssRNA)
RNA: UUUGCCCUUCU
[8]
  Kd: 812 ± 91 nM

From PMC2646082
